Assays:
I-V relationship = details: glycan lost; control: wild type
[1] = cell surface biotinylation, Western blot; details: glycan lost; control: wild type

B1: TRPM5: N932Q (protein)
parent chain: MQDVQGPRPGSPGDAEDRRELGLHRGEVNFGGSGKKRGKFVRVPSGVAPSVLFDLLLAEWHLPAPNLVVSLVGEEQPFAMKSWLRDVLRKGLVKAAQSTGAWILTSALRVGLARHVGQAVRDHSLASTSTKVRVVAVGMASLGRVLHRRILEEAQEDFPVHYPEDDGGSQGPLCSLDSNLSHFILVEPGPPGKGDGLTELRLRLEKHISEQRAGYGGTGSIEIPVLCLLVNGDPNTLERISRAVEQAAPWLILVGSGGIADVLAALVNQPHLLVPKVAEKQFKEKFPSKHFSWEDIVRWTKLLQNITSHQHLLTVYDFEQEGSEELDTVILKALVKACKSHSQEPQDYLDELKLAVAWDRVDIAKSEIFNGDVEWKSCDLEEVMVDALVSNKPEFVRLFVDNGADVADFLTYGRLQELYRSVSRKSLLFDLLQRKQEEARLTLAGLGTQQAREPPAGPPAFSLHEVSRVLKDFLQDACRGFYQDGRPGDRRRAEKGPAKRPTGQKWLLDLNQKSENPWRDLFLWAVLQNRHEMATYFWAMGQEGVAAALAACKILKEMSHLETEAEAARATREAKYERLALDLFSECYSNSEARAFALLVRRNRCWSKTTCLHLATEADAKAFFAHDGVQAFLTRIWWGDMAAGTPILRLLGAFLCPALVYTNLITFSEEAPLRTGLEDLQDLDSLDTEKSPLYGLQSRVEELVEAPRAQGDRGPRAVFLLTRWRKFWGAPVTVFLGNVVMYFAFLFLFTYVLLVDFRPPPQGPSGPEVTLYFWVFTLVLEEIRQGFFTDEDTHLVKKFTLYVGDNWNKCDMVAIFLFIVGVTCRMLPSAFEAGRTVLAMDFMVFTLRLIHIFAIHKQLGPKIIVVERMMKDVFFFLFFLSVWLVAYGVTTQALLHPHDGRLEWIFRRVLYRPYLQIFGQIPLDEIDEARVNCSTHPLLLEDSPSCPSLYANWLVILLLVTFLLVTNVLLMNLLIAMFSYTFQVVQGNADMFWKFQRYNLIVEYHERPALAPPFILLSHLSLTLRRVFKKEAEHKREHLERDLPDPLDQKVVTWETVQKENFLSKMEKRRRDSEGEVLRKTAHRVDFIAKYLGGLREQEKRIKCLESQINYCSVLVSSVADVLAQGGGPRSSQHCGEGSQLVAADHRGGLDGWEQPGAGQPPSDT
- other: channel biophysical properties (I-V relationship): no change
- localisation_or_trafficking [1]: no change
